Source: US20220273751A1 (GPCR THERAPEUTICS, published 2022)

Target: ADRB2 (Adrenoceptor Beta 2) (human, UniProt P07550 1-413)
Experiment: cell-based or functional assay

B1: CXCR4 (C-X-C Motif Chemokine Receptor 4) (receptor, human, UniProt P61073 1-352, looked up)
chain: MEGISIYTSDNYTEEMGSGDYDSMKEPCFREENANFNKIFLPTIYSIIFLTGIVGNGLVILVMGYQKKLRSMTDKYRLHLSVADLLFVITLPFWAVDAVANWYFGNFLCKAVHVIYTVNLYSSVLILAFISLDRYLAIVHATNSQRPRKLLAEKVVYVGVWIPALLLTIPDFIFANVSEADDRYICDRFYPNDLWVVVFQFQHIMVGLILPGIVILSCYCIIISKLSHSKGHQKRKALKTTVILILAFFACWLPYYIGISIDSFILLEIIKQGCEFENTVHKWISITEALAFFHCCLNPILYAFLGAKFKTSAQHALTSVSRGSSLKILSKGKRGGHSSVSTESESSSFHSS
calcium response on co-stimulation with CXCL12 (200 nM) and formoterol (10 uM) relative to CXCL12 alone, HL-60 cells: ~8 fold
calcium response on co-stimulation with CXCL12 (200 nM) and formoterol (10 uM) relative to CXCL12 alone, U937 cells: ~4 fold
